For 140 substances, amyloid nucleation score results are on record in the supplement of paper PMC12042874.

This data set can be described thus: amyloid nucleation score (Sup35N fusion, yeast selection) (log enrichment); library NNK1; higher = more nucleation; inactive = no reads after selection. The method, boiled down: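 Sup35N fusions to peptides of 20 random codons were expressed in psi-negative yeast, induced 24 hours with 100 μM copper sulfate, and grown 7 days at 30°C on medium lacking adenine and uracil. Input and output plasmid inserts were sequenced by Illumina. The nucleation score is the DiMSum log enrichment of output over input reads, centred on the mode score of non-aggregating sequences. Sequences with under 100 input reads were excluded.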

± gives the uncertainty stated by the source.

Substance KSRGRKSSGDFPIRGD showed an amyloid nucleation score of 4.84 ± 0.062.

With FFLEAACYSIFGVEK, the amyloid nucleation score was -0.612 ± 0.3.

Take KVLELYRILYRREHNFWVEV: the amyloid nucleation score was -0.317 ± 1.6.

As for RRRCSSVGRDLMAGSDKRYE, the amyloid nucleation score stood at 0.663 ± 0.24.

For RQRTIFWLMFWELAMFNCHM, the amyloid nucleation score is -0.423 ± 0.74.

In the case of TFPGDGRFPKVSKVYDPVLE, the amyloid nucleation score entry was “inactive”.

Turning to YMNLVLTDLAWSIWGG, the amyloid nucleation score came out at 3.62 ± 0.1.

Regarding SVDRMAYRMCMRNVRLNLCT, the amyloid nucleation score was found to be 0.962 ± 0.37.

The substance IKMRWISFKCLPYCMFKNRI returned an amyloid nucleation score of -0.355 ± 0.35.

Take LKVERMTRKPHGVELLSFRR: the amyloid nucleation score is -0.163 ± 0.97.

In turn, MRVGIWDKMRSLRCDISAC showed an amyloid nucleation score of 0.293 ± 0.66.

TCFVVLYTKMNVFECFDLQV registered an amyloid nucleation score of -0.109 ± 0.51.

In the case of RDSRDLMCFVRLPLDRISK, the amyloid nucleation score was -0.101 ± 0.39.

KSGSKCRLRGSDNSNRLSVM: the amyloid nucleation score was -0.335 ± 1.5.

ISSLYLMSFCILFPPRKFVY came in with an amyloid nucleation score of -1.09 ± 0.51.

On to INSTEIPFDPAVKL, for which the amyloid nucleation score is -0.908 ± 0.79.

As for CRVPIRCRGDLLSLRAVRFR, the amyloid nucleation score stood at 1.88 ± 0.14.

For the substance INFARPVTILTYATFSVFGN, the amyloid nucleation score is 4.9 ± 0.082.

DWVWWRTPSELVVYGADNWR returned an amyloid nucleation score of -0.328 ± 0.84.

Consider RAKICFVRQGRGFIMHRLLA, for which the amyloid nucleation score turned out to be 1.39 ± 0.23.

LRFLWRRRS: the amyloid nucleation score is 0.949 ± 0.28.

Take SSFRLHR: the amyloid nucleation score entry is “inactive”.

In turn, QFSHNRIMLDQTWKNVVKGL had an amyloid nucleation score of -0.001 ± 0.37.

The substance YYNVYTTYTASVWGTYRWNV showed an amyloid nucleation score of -1.45 ± 0.82.

Substance RPGGGAACAVRGRLPVCQLG registered an amyloid nucleation score of -1.13 ± 0.96.

MYFSIRDCCSYAFNSFDIYG came in with an amyloid nucleation score of 5.508 ± 0.047.

The substance VKFMMRLDYYCPLSTVQTTA showed an amyloid nucleation score of -0.644 ± 0.36.

Regarding THCCSRYTPERVC, the amyloid nucleation score was found to be 0.47 ± 0.4.

Turning to ISGFRKLVMVREVP, the amyloid nucleation score is -0.606 ± 1.4.

LGAMRLFTRSLFLADWKYDV yielded an amyloid nucleation score of -0.04 ± 0.45.

The substance RTVVQKKPVRCNMICNYWVF returned an amyloid nucleation score of 4.82 ± 0.064.

FHQDFDSWF came in with an amyloid nucleation score of 0.362 ± 0.51.

For SYGNCVRCSLMYKGKHMLNT, the amyloid nucleation score came to 0.022 ± 0.52.

The substance TSHSETSEAFRRFSAPFLAN came in with an amyloid nucleation score of 0.497 ± 0.64.

The substance FALLFRLFRW yielded an amyloid nucleation score of 0.539 ± 0.28.

As for WRGCVNFCEKKPGVGVSSV, the amyloid nucleation score was found to be 0.076 ± 0.55.

As for RPGMEADLLVNLPLF, the amyloid nucleation score is 0.958 ± 0.72.

The substance NNHKLAFTVVTPIEDHFRMR came in with an amyloid nucleation score of 0.674 ± 0.46.

Take QIIWVIRFLLVCVFTLSKLV: the amyloid nucleation score result is “inactive”.

With HLHLGCWW, the amyloid nucleation score came to 3.31 ± 0.14.

The substance IGDTI displayed an amyloid nucleation score of 0.302 ± 0.33.

Turning to KLTHVNDLLTMVVNVSRAQG, the amyloid nucleation score is -0.004 ± 1.4.

Turning to SNCLDMTVTAW, the amyloid nucleation score result is “inactive”.

NHCCRVFMCFRIRGMYNAET came in with an amyloid nucleation score of 4.05 ± 0.085.

Consider GRARVSIRSWSRSWSVGRVL, for which the amyloid nucleation score is 0.309 ± 0.63.

For NWVLHIRDCRAKALPLITDW, the amyloid nucleation score is -0.034 ± 0.45.

On to SFKYWNIRHKYFRTSLT, for which the amyloid nucleation score is -0.152 ± 0.4.

On to LMPPSG, for which the amyloid nucleation score came out at 0.072 ± 0.69.

In the case of TRKPEPINPQSIWSTVLQHE, the amyloid nucleation score is 0.54 ± 0.48.

Substance RSSKYVNHASQKNAHLRGCS gave an amyloid nucleation score of 0.641 ± 0.7.

As for HSMLI, the amyloid nucleation score was determined as 0.539 ± 0.61.

VISPNSLTCCAH registered an amyloid nucleation score of -0.146 ± 0.93.

As for ISDEIGIAIENKDSLRKGFR, the amyloid nucleation score is 0.002 ± 0.84.

Take SIAYPRNIELRWDEIGGDML: the amyloid nucleation score amounted to 0.178 ± 0.54.

As for LWLRSLIVYYNSFVDMGGCA, the amyloid nucleation score came out at 0.549 ± 0.3.

For FKEER, the amyloid nucleation score is 0.133 ± 1.4.

In turn, SFVSRGCSYCC came in with an amyloid nucleation score of -0.489 ± 0.59.

As for GTLYWLHASV, the amyloid nucleation score came to 0.617 ± 0.47.

For the substance AQFSTKPQQRIP, the amyloid nucleation score was found to be 1.51 ± 0.56.

SHTTILTSWRSYKKMKASNA came in with an amyloid nucleation score of 0.496 ± 0.43.

Substance TSIFDEMSHVEEVRRTMIRG registered an amyloid nucleation score of 0.209 ± 0.35.

Substance SKYGAYGRMVSSNLDT returned an amyloid nucleation score of -0.204 ± 0.84.

Consider SVRSVRSNPRFTSHLPCSKK, for which the amyloid nucleation score is -0.413 ± 0.54.

For PFVDFVVSRNYLRL, the amyloid nucleation score worked out at 0.572 ± 0.61.

Consider VRHCTQINSPFYYDFN, for which the amyloid nucleation score was -0.318 ± 0.3.

With YVRIVIAYFKFSKQFSSQLV, the amyloid nucleation score came out at 0.089 ± 0.22.

For FTSLNVRKLRGACRTTSSHG, the amyloid nucleation score was -0.077 ± 0.61.

For the substance HSVVLILCLAL, the amyloid nucleation score is 0.057 ± 1.2.

For YCGSYHLGSFGIYSTVEIYC, the amyloid nucleation score was found to be 1.37 ± 0.9.

As to FEGAW, the amyloid nucleation score is -0.187 ± 1.

With EISVWVEALFSLYFRNWISG, the amyloid nucleation score is 0.229 ± 0.84.

With TSCPRYECNENTSVYGSLDT, the amyloid nucleation score result was “inactive”.

As to FRGYSGL, the amyloid nucleation score stood at 1.46 ± 0.55.

In turn, AVEVLGPCRNLRVWSNLDLG gave an amyloid nucleation score of -0.072 ± 0.74.

The substance HNSRWTRFRHLCSYITYGGC showed an amyloid nucleation score of -0.396 ± 0.58.

The substance FSDQTFSDLGMIEFRGFLWS returned an amyloid nucleation score of 0.343 ± 0.39.

For the substance GNFMVW, the amyloid nucleation score was -0.403 ± 0.58.

Take RCKLLIIVIRKDTCLKYCGH: the amyloid nucleation score is 0.308 ± 0.32.

As for RCCALTYPLFKHLG, the amyloid nucleation score is 0.573 ± 0.43.

The substance WVSSAAGAAGPVIYWDVALY returned an amyloid nucleation score of -0.612 ± 0.39.

For TCGRGHVTRGYWGTMCGCNG, the amyloid nucleation score worked out at 1.06 ± 0.72.

In turn, ILESCIWDITRLRWPYGSSW came in with an amyloid nucleation score of 0.741 ± 0.21.

MLLLSVSLSLKID registered an amyloid nucleation score of 4.35 ± 0.095.

The substance LSSTLCSIVF returned an amyloid nucleation score of 0.051 ± 0.57.

LWWYFHRTL gave an amyloid nucleation score of -0.168 ± 0.65.

Turning to LSISRCSGRAV, the amyloid nucleation score result is “inactive”.

Substance TPYLDFI gave an amyloid nucleation score of 1.12 ± 0.56.

SKSDQSWYFL came in with an amyloid nucleation score of -0.227 ± 0.68.

In turn, LHTRGLEMFRIGPSCCKWPL showed an amyloid nucleation score of 1.49 ± 0.68.

LHNYLLCTRVNRIDVLRMTL registered an amyloid nucleation score of -0.854 ± 0.37.

In turn, SYVDRVLSSRSRWMKIVELN gave an amyloid nucleation score of 0.083 ± 0.44.

In the case of NSLCYVVWVVVMTVNYYHHW, the amyloid nucleation score is 0.557 ± 0.5.

QSTLGGSKHAWLIENGGFGF returned an amyloid nucleation score of -0.685 ± 1.1.

For the substance ISLVLDFGDVYIVS, the amyloid nucleation score came to 6.203 ± 0.048.

For LFKLSLGCTYCSFA, the amyloid nucleation score was -0.292 ± 0.42.

LTGCLNEYGVSNFMEVRVFR came in with an amyloid nucleation score of -1.88 ± 2.7.

As for SNDTLS, the amyloid nucleation score is 0.265 ± 0.39.

For MTSCMRWAVNRYSFLLWKAN, the amyloid nucleation score is -0.416 ± 0.29.

Take LPIRASGNHL: the amyloid nucleation score worked out at 0.495 ± 0.79.

FTWMRYQKHEGHFI had an amyloid nucleation score of -0.447 ± 1.2.

RFEIIYGWSTYVLDAGVSFQ displayed an amyloid nucleation score of 1.21 ± 0.13.

Substance TVWSHCIEFFGHLRKLRSLL displayed an amyloid nucleation score of 1.84 ± 0.5.

Regarding EVCVLRTLNRKNFDEPDNCI, the amyloid nucleation score was 0.913 ± 0.56.

The substance FRGSLIFSISVIKVISVLSE gave an amyloid nucleation score of 2.11 ± 0.14.

For the substance VSEHSFWIWGRVPQLTQIIA, the amyloid nucleation score result is “inactive”.

With QYEALLPLTKKNRTNTWQRQ, the amyloid nucleation score result is “inactive”.

With LSRFRLFSYMYVLHKCNMGM, the amyloid nucleation score was -0.777 ± 1.2.

For SLIMIGIFFYFSLSKQPRSV, the amyloid nucleation score was 0.027 ± 1.7.

For CLTGGYPNRKLNLTMMWCHW, the amyloid nucleation score result was “inactive”.

The substance TALRLTSSSIKIATQVDLKF showed an amyloid nucleation score of 2.06 ± 0.16.

Turning to KSDSVLAGY, the amyloid nucleation score stood at 5.039 ± 0.05.

As for FWVGP, the amyloid nucleation score was -0.217 ± 0.51.

Consider RIKFDTKMRTVQCSCGSLHS, for which the amyloid nucleation score stood at 2.78 ± 0.18.

The substance NPAITGRFSYCT returned an amyloid nucleation score of 0.456 ± 1.2.

CYVMLINAEND came in with an amyloid nucleation score of -0.796 ± 1.4.

Take SFFWVYHRYSMPRSLCVM: the amyloid nucleation score entry is “inactive”.

TLRHALLRQTLSNLRQDGV yielded an amyloid nucleation score of -0.009 ± 0.3.

Consider RDVAMESRVSGYVGVCGSYR, for which the amyloid nucleation score was -0.71 ± 1.2.

Consider TRSDQPTILTSLYLERNYSP, for which the amyloid nucleation score was -0.321 ± 0.56.

Substance IVVVGD gave an amyloid nucleation score of -1.63 ± 1.3.

SLKMMIFQRGFYTSIG displayed an amyloid nucleation score of 1.75 ± 0.13.

In turn, SNMNAFYTLEHVMPAKFEIS gave an amyloid nucleation score of 1.07 ± 0.33.

In turn, MPCNVGMGWCRVVNWWGLYG yielded an amyloid nucleation score of 0.604 ± 0.44.

Turning to WLKVRNTR, the amyloid nucleation score was -0.178 ± 0.49.

Consider YKKGYWSGDVAFVWWFTYMC, for which the amyloid nucleation score came out at 0.959 ± 0.54.

The substance RFCLAVGLRMGYFLGCSDFR registered an amyloid nucleation score of -0.45 ± 1.4.

Regarding NMQLAPTGPNTVPISYDLFP, the amyloid nucleation score was -1.46 ± 2.4.

For TGWNGNLGSVVAE, the amyloid nucleation score was -0.375 ± 0.5.

KDQKISVIMFILMRVPLY: the amyloid nucleation score is 0.546 ± 0.45.

In turn, LLPLLSMGRTPLRCKPMASS came in with an amyloid nucleation score of 0.058 ± 0.3.

On to ILFSNCSFLKSCYWFK, for which the amyloid nucleation score came to 7.25 ± 0.085.

Substance IVSMRL came in with an amyloid nucleation score of 0.216 ± 1.4.

In the case of YWWDIRWGEAGSRERRVELG, the amyloid nucleation score was determined as 0.078 ± 0.53.

With ICGTCCMPNLFVHHYIFLSP, the amyloid nucleation score turned out to be 6.708 ± 0.063.

Turning to HGNYTHQMTPAELFLRHMRF, the amyloid nucleation score was -0.991 ± 2.4.

The substance RTMHVRFDIRKVALKIFKFY displayed an amyloid nucleation score of 1.3 ± 0.4.

With VVAVE, the amyloid nucleation score is -0.27 ± 0.38.

In turn, RSRIYCGFNRPTCEGFSRLS yielded an amyloid nucleation score of 2.63 ± 0.11.

Substance CSNDMGEQWWEDRYCTGKWD had an amyloid nucleation score of -0.204 ± 0.38.

In the case of LFMLSSVGASMYFMG, the amyloid nucleation score amounted to 1.69 ± 0.19.
